Measured values reported in patent US20030088058A1, “ISOPENICILLIN N SYNTHETASE AND DEACETOXYCEPHALOSPORIN C SYNTHETASE ENZYMES AND METHODS” (priority 1996, published 2003).
Numbering of substitutions follows the chain as printed. In names and notes the source's numbering stands.

Columns and labels:
DAOCS [1] = target: DAOCS (Streptomyces clavuligerus, UniProt P18548); details: compared with conversion of penicillin N to DAOC; cited from earlier work
DAOCS [2] = test: Specific activity of DAOCS mutants by turnover of α-[14C]-ketoglutarate with penicillin substrates; assay type: biochemical
Protocol: (§1) Almost all the mutants expressed well, except R88I, R88Q and R87Q/R287Q whereby the expression level was only about half of others. Generally the expression level of colonies was about 10˜20% of soluble protein at 27° C. Moreover, recombinant enzyme of P168V mutant was insoluble. These mutant enzymes were purified to ˜60-70% purity with Resouce-Q column (Phamacia). The activity of each mutant with respect to penicillin N and its side-chain analogues was analysed by bioassay. […] Screening of the substrate conversion of penicillins mutants was also performed using a assay with radiolabelled α-ketoglutarate. The reaction conditions were the same as for bioassay except that [^14C]-α-ketoglutarate was used.

E. coli X580 cells = test: Hole-plate bioassay containing penicillinase, on enzyme reaction products; assay type: cell-based; details: products of the reaction with penicillin G; hole-plate assay with penicillinase
Protocol: as §1

[3] = Expression of recombinant DAOCS mutants, solubility of the enzyme; details: expressed at 27° C.
Source text: A U.S.E mutagenesis kit (Phamacia) was used for all the mutagenesis reactions and a Pst I restriction site on the pET vector was selected. Selection of single and double mutants were successfully performed from colonies by restriction enzyme digestion. (Sambrook et al, Molecular Cloning, A Laboratory Manual, Cold Spring Harbour, USA, 1989). […] Mutations of DAOCS (Table 1) were confirmed by sequencing according to the dideoxy method of Sanger. Mutants were designed after study of the IPNS-Mn^2+ and the IPNS-Fe(II)-ACV structures. Polar residues with which the side chain D-α-aminoadipoyl (carboxylate and amino groups) might bind to were identified.
as §1

B1: Wild type: unmodified deacetoxycephalosporin C synthase (DAOCS, expandase) (protein, UniProt P18548 1-311, looked up)
Deacetoxycephalosporin C …: MDTTVPTFSLAELQQGLHQDEFRRCLRDKGLFYLTDCGLTDTELKSAKDLVIDFFEHGSEAEKRAVTSPVPTMRRGFTGLESESTAQITNTGSYSDYSMCYSMGTADNLFPSGDFERIWTQYFDRQYTASRAVAREVLRATGTEPDGGVEAFLDCEPLLRFRYFPQVPEHRSAEEQPLRMAPHYDLSMVTLIQQTPCANGFVSLQAEVGGAFTDLPYRPDAVLVFCGAIATLVTGGQVKAPRHHVAAPRRDQIAGSSRTSSVFFLRPNADFTFSVPLARECGFDVSLDGETATFQDWIGGNYVNIRRTSKA
With B1 as the molecule, how does the “Efficiency of conversion of penicillin G to phenylacetylcephalosporin C” value (DAOCS [1]) read?
The value was “much less efficient”.

And the Specific activity (DAOCS [2]; substrate 6-Aminopenicillanic acid (6-APA))?
Its Specific activity is 1.0 ± 0.2 nmol/min/mg.

And the Specific activity (DAOCS [2]; substrate Adipyl-6-APA)?
The Specific activity was 2.7 nmol/min/mg.

What about the Specific activity (DAOCS [2]; substrate Ammoxicillin) of the same molecule?
Its Specific activity is 1.4 ± 0.6 nmol/min/mg.

What about the Specific activity (DAOCS [2]; substrate Ampicillin) of the same molecule?
Its Specific activity is 0 nmol/min/mg.

What about the Specific activity (DAOCS [2]; substrate Carbenicillin) of the same molecule?
The Specific activity was 0 nmol/min/mg.

What about the Specific activity (DAOCS [2]; substrate Cloxacillin) of the same molecule?
The Specific activity was 1.6 ± 0.6 nmol/min/mg.

And the Specific activity (DAOCS [2]; substrate Methicillin)?
The Specific activity was 0 nmol/min/mg.

What about the Specific activity (DAOCS [2]; substrate Penicillin G) of the same molecule?
Its Specific activity is 5.1 ± 0.4 nmol/min/mg.

And the Specific activity (DAOCS [2]; substrate Penicillin N, uncoupled decarboxylation subtracted)?
Its Specific activity is 6.4 nmol/min/mg.

What about the Specific activity (DAOCS [2]; substrate Penicillin V) of the same molecule?
Its Specific activity is 5.3 ± 0.3 nmol/min/mg.

What about the “Oxacillin accepted as substrate (in words)” value (DAOCS [2]; substrate oxacillin) of the same molecule?
Its value is “neither oxacillin nor piperacillin are substrates”.

And the Specific activity (DAOCS [2]; substrate oxacillin)?
Its Specific activity is 0 nmol/min/mg.

What about the “Piperacillin accepted as substrate (in words)” value (DAOCS [2]; substrate piperacillin) of the same molecule?
The value was “neither oxacillin nor piperacillin are substrates”.

And the Specific activity (DAOCS [2]; substrate piperacillin)?
Its Specific activity is 0 nmol/min/mg.

And the “Inhibition of growth of E. coli X580 cells” value (E. coli X580 cells)?
Its value is “showed the same inhibition”.

B2: P168V: DAOCS mutant whose recombinant enzyme was insoluble (protein, UniProt P18548 1-311, looked up, variant P168V)
Deacetoxycephalosporin C …: B1 Deacetoxycephalosporin C … with P168V
Which “Solubility of recombinant enzyme” value [3] does the source give for B2 here?
The value was “insoluble”.
